The supplement of paper PMC5998384

Assays:
HeLa Kyoto [1] = assay: thermal stability score vs G1/S (z-score of summed log2 fold changes over temperatures); higher = more thermally stable than in G1/S
HeLa Kyoto [2] = assay: melting temperature (median over replicates), in situ; higher = more thermally stable
[3] = cell cycle stage: early G1 (4.5 h after nocodazole release)
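Wherever melting temperature (median over replicates), in situ is given: HeLa Kyoto cells synchronized by double thymidine or nocodazole block, proteins quantified by TMT10plex mass spectrometry, three independent biological replicates.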
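Wherever thermal stability score vs G1/S (z-score of summed log2 fold changes over temperatures) is given: synchronized HeLa Kyoto cells, proteins quantified by TMT10plex mass spectrometry, three biological replicates, mitosis taken 0.5 h after nocodazole release, G1/S directly after double thymidine block.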

Sequence: MAACRALKAVLVDLSGTLHIEDAAVPGAQEALKRLRGASVIIRFVTNTTKESKQDLLERLRKLEFDISEDEIFTSLTAARSLLERKQVRPMLLVDDRALPDFKGIQTSDPNAVVMGLAPEHFHYQILNQAFRLLLDGAPLIAIHKARYYKRKDGLALGPGPFVTALEYATDTKATVVGKPEKTFFLEALRGTGCEPEEAVMIGDDCRDDVGGAQDVGMLGILVKTGKYRASDEEKINPPPYLTCESFPHAVDHILQHLL [HDHD2]
- thermal stability score (HeLa Kyoto [1]; [3]): -2.07
- thermal stability score (HeLa Kyoto [1]; cell cycle stage: mitosis): -2.57
- melting temperature (HeLa Kyoto [2]; cell cycle stage: G1/S): 57.3 °C
- melting temperature (HeLa Kyoto [2]; cell cycle stage: mitosis): 59 °C

Sequence: MADVINVSVNLEAFSQAISAIQALRSSVSRVFDCLKDGMRNKETLEGREKAFIAHFQDNLHSVNRDLNELERLSNLVGKPSENHPLHNSGLLSLDPVQDKTPLYSQLLQAYKWSNKLQYHAGLASGLLNQQSLKRSANQMGVSAKRRPKAQPTTLVLPPQYVDDVISRIDRMFPEMSIHLSRPNGTSAMLLVTLGKVLKVIVVMRSLFIDRTIVKGYNENVYTEDGKLDIWSKSNYQVFQKVTDHATTALLHYQLPQMPDVVVRSFMTWLRSYIKLFQAPCQRCGKFLQDGLPPTWRDFRTLEAFHDTCRQ [MED27]
- thermal stability score (HeLa Kyoto [1]; [3]): -0.132
- thermal stability score (HeLa Kyoto [1]; cell cycle stage: mitosis): 0.247
- melting temperature (HeLa Kyoto [2]; cell cycle stage: G1/S): 48.5 °C

Sequence: MAFSQVQCLDDNHVNWRSSESKPEFFYSEEQRLALEALVARGRDAFYEVLKRENIRDFLSELELKRILETIEVYDPGSEDPRGTGPSQGPEDNGVGDGEEASGADGVPIEAEPLPSLEYWPQKSDRSIPQLDLGWPDTIAYRGVTRASVYMQPPIDGQAHIKEVVRKMISQAQKVIAVVMDMFTDVDIFKDLLDAGFKRKVAVYIIVDESNVKYFLHMCERACMHLGHLKNLRVRSSGGTEFFTRSATKFKGALAQKFMFVDGDRAVCGSYSFTWSAARTDRNVISVLSGQVVEMFDRQFQELYLMSHSVSLKGIPMEKEPEPEPIVLPSVVPLVPAGTVAKKLVNPKYALVKAKSVDEIAKISSEKQEAKKPLGLKGPALAEHPGELPELLPPIHPGLLHLERANMFEYLPTWVEPDPEPGSDILGYINIIDPNIWNPQPSQMNRIKIRDTSQASAQHQLWKQSQDSRPRPEPCPPPEPSAPQDGVPAENGLPQGDPEPLPPVPKPRTVPVADVLARDSSDIGWVLELPKEEAPQNGTDHRLPRMAGPGHAPLQRQLSVTQDDPESLGVGLPNGLDGVEEEDDDDYVTLSDQDSHSGSSGRGPGPRRPSVASSVSEEYFEVREHSVPLRRRHSEQVANGPTPPPRRQLSAPHITRGTFVGPQGGSPWAQSRGREEADALKRMQAQRSTDKEAQGQQFHHHRVPASGTRDKDGFPGPPRYRSAADSVQSSTRNAGPAMAGPHHWQAKGGQVPRLLPDPGSPRLAQNARPMTDGRATEEHPSPFGIPYSKLSQSKHLKARTGGSQWASSDSKRRAQAPRDRKDP [FAM83G]
- thermal stability score (HeLa Kyoto [1]; [3]): 1.03
- thermal stability score (HeLa Kyoto [1]; cell cycle stage: mitosis): 0.873
- melting temperature (HeLa Kyoto [2]; cell cycle stage: G1/S): 51.3 °C

Sequence: MAIAQLATEYVFSDFLLKEPTEPKFKGLRLELAVDKMVTCIAVGLPLLLISLAFAQEISIGTQISCFSPSSFSWRQAAFVDSYCWAAVQQKNSLQSESGNLPLWLHKFFPYILLLFAILLYLPPLFWRFAAAPHICSDLKFIMEELDKVYNRAIKAAKSARDLDMRDGACSVPGVTENLGQSLWEVSESHFKYPIVEQYLKTKKNSNNLIIKYISCRLLTLIIILLACIYLGYYFSLSSLSDEFVCSIKSGILRNDSTVPDQFQCKLIAVGIFQLLSVINLVVYVLLAPVVVYTLFVPFRQKTDVLKVYEILPTFDVLHFKSEGYNDLSLYNLFLEENISEVKSYKCLKVLENIKSSGQGIDPMLLLTNLGMIKMDVVDGKTPMSAEMREEQGNQTAELQGMNIDSETKANNGEKNARQRLLDSSC [PANX1]
- thermal stability score (HeLa Kyoto [1]; [3]): -1.3
- thermal stability score (HeLa Kyoto [1]; cell cycle stage: mitosis): -1.3
- melting temperature (HeLa Kyoto [2]; cell cycle stage: G1/S): 57.4 °C
- melting temperature (HeLa Kyoto [2]; cell cycle stage: mitosis): 55.7 °C

Sequence: MASASSGPSSSVGFSSFDPAVPSCTLSSAASGIKRPMASEVLEARQDSYISLVPYASGMPIKKIGHRSVDSSGETTYKKTTSSALKGAIQLGITHTVGSLSTKPERDVLMQDFYVVESIFFPSEGSNLTPAHHYNDFRFKTYAPVAFRYFRELFGIRPDDYLYSLCSEPLIELCSSGASGSLFYVSSDDEFIIKTVQHKEAEFLQKLLPGYYMNLNQNPRTLLPKFYGLYCVQAGGKNIRIVVMNNLLPRSVKMHIKYDLKGSTYKRRASQKEREKPLPTFKDLDFLQDIPDGLFLDADMYNALCKTLQRDCLVLQSFKIMDYSLLMSIHNIDHAQREPLSSETQYSVDTRRPAPQKALYSTAMESIQGEARRGGTMETDDHMGGIPARNSKGERLLLYIGIIDILQSYRFVKKLEHSWKALVHDGDTVSVHRPGFYAERFQRFMCNTVFKKIPLKPSPSKKFRSGSSFSRRAGSSGNSCITYQPSVSGEHKAQVTTKAEVEPGVHLGRPDVLPQTPPLEEISEGSPIPDPSFSPLVGETLQMLTTSTTLEKLEVAESEFTH [PIP5K1A]
- thermal stability score (HeLa Kyoto [1]; [3]): 1.38
- thermal stability score (HeLa Kyoto [1]; cell cycle stage: mitosis): 1.13
- melting temperature (HeLa Kyoto [2]; cell cycle stage: G1/S): 51.4 °C
- melting temperature (HeLa Kyoto [2]; cell cycle stage: mitosis): 51.5 °C

Sequence: MATKEKLQCLKDFHKDILKPSPGKSPGTRPEDEAEGKPPQREKWSSKIDFVLSVAGGFVGLGNVWRFPYLCYKNGGGAFLIPYFIFLFGSGLPVFFLEIIIGQYTSEGGITCWEKICPLFSGIGYASVVIVSLLNVYYIVILAWATYYLFQSFQKELPWAHCNHSWNTPHCMEDTMRKNKSVWITISSTNFTSPVIEFWERNVLSLSPGIDHPGSLKWDLALCLLLVWLVCFFCIWKGVRSTGKVVYFTATFPFAMLLVLLVRGLTLPGAGAGIKFYLYPDITRLEDPQVWIDAGTQIFFSYAICLGAMTSLGSYNKYKYNSYRDCMLLGCLNSGTSFVSGFAIFSILGFMAQEQGVDIADVAESGPGLAFIAYPKAVTMMPLPTFWSILFFIMLLLLGLDSQFVEVEGQITSLVDLYPSFLRKGYRREIFIAFVCSISYLLGLTMVTEGGMYVFQLFDYYAASGVCLLWVAFFECFVIAWIYGGDNLYDGIEDMIGYRPGPWMKYSWAVITPVLCVGCFIFSLVKYVPLTYNKTYVYPNWAIGLGWSLALSSMLCVPLVIVIRLCQTEGPFLVRVKYLLTPREPNRWAVEREGATPYNSRTVMNGALVKPTHIIVETMM [SLC6A6]
- thermal stability score (HeLa Kyoto [1]; [3]): -2.77
- thermal stability score (HeLa Kyoto [1]; cell cycle stage: mitosis): -2.51
- melting temperature (HeLa Kyoto [2]; cell cycle stage: G1/S): 57.6 °C
- melting temperature (HeLa Kyoto [2]; cell cycle stage: mitosis): 57.2 °C

Sequence: MAYHSGYGAHGSKHRARAAPDPPPLFDDTSGGYSSQPGGYPATGADVAFSVNHLLGDPMANVAMAYGSSIASHGKDMVHKELHRFVSVSKLKYFFAVDTAYVAKKLGLLVFPYTHQNWEVQYSRDAPLPPRQDLNAPDLYIPTMAFITYVLLAGMALGIQKRFSPEVLGLCASTALVWVVMEVLALLLGLYLATVRSDLSTFHLLAYSGYKYVGMILSVLTGLLFGSDGYYVALAWTSSALMYFIVRSLRTAALGPDSMGGPVPRQRLQLYLTLGAAAFQPLIIYWLTFHLVR [YIF1A]
- thermal stability score (HeLa Kyoto [1]; [3]): -0.13
- thermal stability score (HeLa Kyoto [1]; cell cycle stage: mitosis): -2.04
- melting temperature (HeLa Kyoto [2]; cell cycle stage: G1/S): 57.2 °C

Sequence: MDLAANEISIYDKLSETVDLVRQTGHQCGMSEKAIEKFIRQLLEKNEPQRPPPQYPLLIVVYKVLATLGLILLTAYFVIQPFSPLAPEPVLSGAHTWRSLIHHIRLMSLPIAKKYMSENKGVPLHGGDEDRPFPDFDPWWTNDCEQNESEPIPANCTGCAQKHLKVMLLEDAPRKFERLHPLVIKTGKPLLEEEIQHFLCQYPEATEGFSEGFFAKWWRCFPERWFPFPYPWRRPLNRSQMLRELFPVFTHLPFPKDASLNKCSFLHPEPVVGSKMHKMPDLFIIGSGEAMLQLIPPFQCRRHCQSVAMPIEPGDIGYVDTTHWKVYVIARGVQPLVICDGTAFSEL [C6ORF89]
- thermal stability score (HeLa Kyoto [1]; [3]): 0.0285
- thermal stability score (HeLa Kyoto [1]; cell cycle stage: mitosis): -2.22
- melting temperature (HeLa Kyoto [2]; cell cycle stage: G1/S): 53.2 °C

Sequence: MEAAVAPGRDAPAPAASQPSGCGKHNSPERKVYMDYNATTPLEPEVIQAMTKAMWEAWGNPSSPYSAGRKAKDIINAARESLAKMIGGKPQDIIFTSGGTESNNLVIHSVVKHFHANQTSKGHTGGHHSPVKGAKPHFITSSVEHDSIRLPLEHLVEEQVAAVTFVPVSKVSGQAEVDDILAAVRPTTRLVTIMLANNETGIVMPVPEISQRIKALNQERVAAGLPPILVHTDAAQALGKQRVDVEDLGVDFLTIVGHKFYGPRIGALYIRGLGEFTPLYPMLFGGGQERNFRPGTENTPMIAGLGKAAELVTQNCEAYEAHMRDVRDYLEERLEAEFGQKRIHLNSQFPGTQRLPNTCNFSIRGPRLQGHVVLAQCRVLMASVGAACHSDHGDQPSPVLLSYGVPFDVARNALRLSVGRSTTRAEVDLVVQDLKQAVAQLEDQA [SCLY]
- thermal stability score (HeLa Kyoto [1]; [3]): -0.479
- thermal stability score (HeLa Kyoto [1]; cell cycle stage: mitosis): -0.778
- melting temperature (HeLa Kyoto [2]; cell cycle stage: G1/S): 55.4 °C
- melting temperature (HeLa Kyoto [2]; cell cycle stage: mitosis): 51.5 °C

Sequence: MEFDCEGLRRLLGKYKFRDLTVEELRNVNVFFPHFKYSMDTYVFKDSSQKDLLNFTGTIPVMYQGNTYNIPIRFWILDSHPFAPPICFLKPTANMGILVGKHVDAQGRIYLPYLQNWSHPKSVIVGLIKEMIAKFQEELPMYSLSSSDEARQVDLLAYIAKITEGVSDTNSKSWANHENKTVNKITVVGGGELGIACTLAISAKGIADRLVLLDLSEGTKGATMDLEIFNLPNVEISKDLSASAHSKVVIFTVNSLGSSQSYLDVVQSNVDMFRALVPALGHYSQHSVLLVASQPVEIMTYVTWKLSTFPANRVIGIGCNLDSQRLQYIITNVLKAQTSGKEVWVIGEQGEDKVLTWSGQEEVVSHTSQVQLSNRAMELLRVKGQRSWSVGLSVADMVDSIVNNKKKVHSVSALAKGYYDINSEVFLSLPCILGTNGVSEVIKTTLKEDTVTEKLQSSASSIHSLQQQLKL [UEVLD]
- thermal stability score (HeLa Kyoto [1]; [3]): -0.401
- thermal stability score (HeLa Kyoto [1]; cell cycle stage: mitosis): 0.298
- melting temperature (HeLa Kyoto [2]; cell cycle stage: G1/S): 49.9 °C
- melting temperature (HeLa Kyoto [2]; cell cycle stage: mitosis): 50.1 °C

Sequence: MELWPCLAAALLLLLLLVQLSRAAEFYAKVALYCALCFTVSAVASLVCLLRHGGRTVENMSIIGWFVRSFKYFYGLRFEVRDPRRLQEARPCVIVSNHQSILDMMGLMEVLPERCVQIAKRELLFLGPVGLIMYLGGVFFINRQRSSTAMTVMADLGERMVRENLKVWIYPEGTRNDNGDLLPFKKGAFYLAVQAQVPIVPVVYSSFSSFYNTKKKFFTSGTVTVQVLEAIPTSGLTAADVPALVDTCHRAMRTTFLHISKTPQENGATAGSGVQPAQ [AGPAT2]
- thermal stability score (HeLa Kyoto [1]; [3]): -0.0581
- thermal stability score (HeLa Kyoto [1]; cell cycle stage: mitosis): 0.548
- melting temperature (HeLa Kyoto [2]; cell cycle stage: mitosis): 52.2 °C
